B1: minF1; a variant is named by its letters at N, in order (parent)
chain: GAGACCGCAACTGAAAAGTTGTTNNNNAANNNNGGNTNNATTTCTGCACGTAGAAGCAAAAGGC

Variants of: B1
Test: fraction ligated after 30 min (ligated reads / total reads); higher = more ligase activity
Conditions: with F1*subA RNA substrate (template-directed ligation), 42 °C
Procedure: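 Chip-synthesised pool of minF1 ligase ribozyme variants (single and double substitutions, single to quadruple deletions, bulge and P2 designed variants) was transcribed with T7 and reacted as a pool with excess substrate F1*subA for 30 min at 42 C in 50 mM EPPS pH 8.5, 25 mM MgCl2. Ligated and unligated RNAs were separated by PAGE, barcoded by RT and deep sequenced; fraction ligated = ligated reads / total reads, relative activity = FL / FL of wild-type minF1 (0.76); sequencing FL correlated with PAGE (R2 = 0.98). Sequences are the DNA template of the ribozyme.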

Variant | fraction ligated
ACAGATGAGTA G34T | 0.00197
TCAGATGGTGA T23A | 0.0062
TCAGTGGTTGA | 0.00261
ACAGGGAGTGA A29T | 0.00347
ACAGATGGGTT G34A G35T T37G | 0.000596
TCGATGGTTGA | 0.00257
TCAGATGGGTT G34A T37G A40G | 0.00106
TCGATGTGTGA T23A | 0.00234
ACAGGGAGTGA | 0.00202
TCAGTGGAGTT G34T T37G A40G | 0.00151
TCAGATGGGGT G34A G35T T37G A40T | 0.00121
TCAGAGATGTG | 0.0039
TCAGAGATGTA | 0.000871
TCAGATGGGTG T23A | 0.00293
TCAGATGAGTG T23A | 0.00683
TCGAGGTGTGA T23A A29T | 0.00169
TCAGATGAGTG G34T | 0.00362
ACAGATGGGTT G34A T37G A40G | 0.000615
ACAGGATGTGA A29G | 0.00108
ACAGGATGTGA A29T | 0.00171
TCGATGAGTGA T23A | 0.00204
TCGAGGATGTG T23A A29T | 0.0128
TCAGATATGTG T23A | 0.00384
TCGAGGTGTGA T23A | 0.00322

Variant | fraction ligated
TCAGTGGAGTG T23A | 0.00892
TCAGTGATGTA T23A | 0.00165
ACGAGGATTGA | 0.00256
TCGAGATGTGA T23A A28T A29G | 0.00546
TCAGATGGGTT G34A T37G | 0.00135
TCAGTGGAGTA T23A | 0.00382
TCAATGGTTGA | 0.00179
ACAGAGGTGTA | 0.00348
ACAGAGGTGTG | 0.00409
TCAGGGATGTG T23A A29T | 0.0102
TCGATGGAGTG | 0.0131
TCGATGGAGTA | 0.00705
TCAGATGGGTG | 0.005
TCAGATGGGTA | 0.000871
ACAGATATGTG | 0.00478
ACAGATATGTA | 0.00255
ACAGAGGGTGA | 0.00282
ACAGAGTGTGA | 0.00284
TCAGAGGAGTA G34T | 0.00236
TCAGAGGAGTG T23A | 0.0042
TCAGAGGAGTG T23A G34T | 0.00498
ACGATGGTTGA | 0.00307
TCAGTGGTGTG | 0.00278
TCAGTGGTGTA | 0.00201

Variant | fraction ligated
TCGAGGATTGA T23A | 0.00135
ACAGGGATTGA A29T | 0.00506
ACGATGATGTA | 0.00144
ACGATGATGTG | 0.00517
TCAGTGATTGA | 0.00169
TCAGGGATGTG T23A | 0.00389
TCAGTGTGTGA T23A | 0.00289
TCAGATGGGTA T23A | 0.00335
TCAGTATGTGA T23A | 0.00284
TCAGATGAGTT T23A G34T T37G A40G | 0.00258
TCGAGGAGTGA T23A A29T | 0.00108
ACGAGATGTGA | 0.00357
ACAGATTGTGA | 0.00539
TCGATGGATGA | 0.00257
ACGAGGATGTA | 0.00292
ACGAGGATGTG | 0.00917
TCAATGTGTGA | 0.00236
ACAGAGGAGTG G34T | 0.00588
TCGAGATGTGA A29T | 0.00243
TCGAGATGTGA A29G | 0.00245
TCAGTGGTGTG T23A | 0.00413
TCAGATGGGTA G34A | 0.00212
TCAGATGGGTA G34T | 0.00105
ACGATGGGTGA | 0.00155

Variant | fraction ligated
ACAGGGTGTGA | 0.00435
ACAGAGGTTGA | 0.00073
TCAGAGGGTGA T23A | 0.004
ACAGATGTTGA | 0.00338
TCGATGGAGTT G34T T37G | 0.00201
ACGAGGAGTGA | 0.000641
TCAGTGGATGA | 0.00185
TCAGATGTGTG T23A | 0.00627
TCAGGGATGTG | 0.00637
TCAGGGATGTA | 0.00309
TCAGATGGGTG T23A G34T | 0.00324
TCAGATGGGTG T23A G34A | 0.00659
TGAAGATGTGA A28T A29G | 0.00314
ACAGAGGAGTA G34T | 0.000671
TCGATGGAGTT T23A G34T T37G | 0.001
TCAGATGATGA | 0.00144
TCGATGAGTGA | 0.00207
TCGAGGTGTGA | 0.00212
ACAGATGGGGT G34A G35T T37G A40T | 0.00109
TCGATGATGTG T23A | 0.00459
TCAGAGGTGTG | 0.00329
TCAGAGGTGTA | 0.0016
ACGAGGTGTGA A29T | 0.00316
TCAGATGAGTT G34T T37G A40G | 0.00127

Variant | fraction ligated
TCGATGATTGA | 0.00257
TCGATGGAGTT T23A G34T T37G A40G | 0.00165
TCGATGTGTGA | 0.0025
TCGAGGAGTGA | 0.00338
TCAGAGGAGTT T23A G34T T37G | 0.000421
TCAGTGGGTGA T23A | 0.0036
TCAGATGGGTT G34A G35T T37G A40G | 0.000594
TCAGATATGTG | 0.00722
TCAGATATGTA | 0.00271
TCAGTGGAGTG | 0.00572
TCAGTGGAGTA | 0.00247
CGAAGATGTGA A29G | 0.00313
TCAGTGGAGTT G34T T37G | 0.00084
TCAGTGATTGA T23A | 0.00266
ACAGTGGAGTA G34T | 0.0155
ACGAGGATTGA A29T | 0.00766
TCAGATGGGTT T23A G34A T37G A40G | 0
TCAGATGGGTT T23A G34T T37G A40G | 0.00157
TCAGATGTGTG | 0.00413
TCAGATGTGTA | 0.000796
ACAGGGATGTG A29T | 0.00794
TCGATGGAGTA T23A | 0.00851
TCAGTGATGTG T23A | 0.00385
TCAGAGGAGTA | 0

Variant | fraction ligated
TCAGAGGAGTG | 0.00573
TCAGAGATGTA T23A | 0.00211
ACGAGGAGTGA A29T | 0.00454
TCGATATGTGA T23A | 0.00444
TCGAGGTGTGA A29T | 0.00308
TCAGGGATTGA A29T | 0.00182
TCAGATTGTGA | 0.00132
TCAGAGGAGTT G34T T37G | 0.000958
ACGAGGTGTGA | 0.00342
TCAGAGGATGA T23A | 0.00378
TCAGATGGGTT T23A G34A T37G | 0.000991
TCGATGGAGTA G34T | 0.143
TCAGATGAGTT T23A G34T T37G | 0.00034
TCAGAGGGTGA | 0.00299
TCAGGGATGTA T23A A29T | 0.00445
TCAGATATTGA T23A | 0.00254
TCGAGGATTGA A29T | 0.00979
AGAAGATGTGA A28T A29G | 0.00743
ACGATGGAGTT G34T T37G | 0.00155
TCAGAGAGTGA | 0.00182
TCAGGATGTGA | 0.00269
TCAGAGGTGTG T23A | 0.00531
TCAGGGATGTA A29T | 0.000605
ACGATGTGTGA | 0.00232

Variant | fraction ligated
ACAGTGGTTGA | 0.00127
TCAGATGGGTT T23A G34A G35T T37G | 0.00134
TCAGATATTGA | 0.00261
TCAGATGGGTT G34A G35T T37G | 0.00107
TCGAGGATGTG T23A | 0.00538
TCGATGGTGTA | 0.00285
TCGATGGTGTG | 0.00467
TCAGTGGTTGA T23A | 0.00216
TCAGGGATTGA T23A A29T | 0.0045
TCAGAGATGTG T23A | 0.00606
TCGATGGAGTG T23A G34T | 0.25
ACAGTGGAGTG G34T | 0.0352
TCAGATGATGA T23A | 0.00196
TCAGATGAGTA | 0.0022
TCAGATGAGTG | 0.00463
ACAGTGGAGTT G34T T37G | 0.00159
TCAGGATGTGA A28T A29G | 0.00322
TCAGAGGATGA | 0.00215
ACGATGATTGA | 0.00224
ACGAGATGTGA A29G | 0.00268
ACGAGATGTGA A29T | 0.00193
ACAGAGGAGTA | 0.0028
ACAGAGGAGTG | 0.00401
